The values below are quoted from earlier work in publication PMC7823800.

In series [1] the target is TNF (Homo sapiens) (UniProt P01375).
Series [2] has the same target. The source holds these as a separate data set.

Like-named read-outs stand apart in the source and are kept apart here.

Chain of TNF (Homo sapiens) (P01375 77-233): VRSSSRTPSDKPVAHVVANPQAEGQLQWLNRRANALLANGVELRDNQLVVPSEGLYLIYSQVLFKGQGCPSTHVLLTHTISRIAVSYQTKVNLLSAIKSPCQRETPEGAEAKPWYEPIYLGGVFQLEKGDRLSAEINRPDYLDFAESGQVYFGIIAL
Chain of TNFR2 (P20333 23-461): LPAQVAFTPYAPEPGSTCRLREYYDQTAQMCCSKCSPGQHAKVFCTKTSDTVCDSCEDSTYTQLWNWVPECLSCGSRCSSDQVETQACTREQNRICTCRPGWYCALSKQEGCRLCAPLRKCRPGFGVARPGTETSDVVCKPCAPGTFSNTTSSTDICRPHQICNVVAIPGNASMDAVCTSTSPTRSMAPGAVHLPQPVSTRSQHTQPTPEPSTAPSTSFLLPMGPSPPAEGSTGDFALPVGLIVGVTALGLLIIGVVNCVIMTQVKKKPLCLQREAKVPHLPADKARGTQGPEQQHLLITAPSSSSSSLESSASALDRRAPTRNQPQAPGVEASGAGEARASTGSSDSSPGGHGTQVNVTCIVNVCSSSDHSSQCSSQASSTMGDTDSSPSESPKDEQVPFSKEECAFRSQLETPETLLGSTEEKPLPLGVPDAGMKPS
Chain of CrmB (P0DSV7 23-349): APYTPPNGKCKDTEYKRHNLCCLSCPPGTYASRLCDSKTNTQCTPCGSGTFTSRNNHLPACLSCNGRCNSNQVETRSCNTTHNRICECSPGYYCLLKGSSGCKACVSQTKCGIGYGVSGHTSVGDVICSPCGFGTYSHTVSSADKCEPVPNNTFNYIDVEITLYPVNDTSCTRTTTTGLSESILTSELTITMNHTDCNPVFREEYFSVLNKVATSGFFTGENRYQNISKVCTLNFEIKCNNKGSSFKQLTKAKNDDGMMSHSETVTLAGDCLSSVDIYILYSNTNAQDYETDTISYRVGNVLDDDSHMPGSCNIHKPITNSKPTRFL

As to CrmB (from UniProt P0DSV7), in the series with TNF (Homo sapiens) [1], the Kd is 0.28 nM. As for TNFR2 (from UniProt P20333), in the series with TNF (Homo sapiens) [2], the dissociation constant Kd is 0.3 nM.
